The record followed here is US20240002495A1 (MITSUBISHI TANABE PHARMA, published 2024).

Test [1] deals with T1, biotinylated 6His tag-AviTag-linked mature human IL-33 (residues 112 to 270) (human, UniProt O95760 112-270, biotin on the AviTag portion (BirA)).
T1 construct: made in E. coli; also called biotinylated human IL-33 protein
T1 sequence: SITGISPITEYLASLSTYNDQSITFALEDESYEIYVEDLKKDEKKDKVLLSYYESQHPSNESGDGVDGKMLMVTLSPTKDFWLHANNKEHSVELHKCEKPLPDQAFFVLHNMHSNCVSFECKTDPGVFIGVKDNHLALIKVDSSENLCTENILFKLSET
Put plainly: SPR, IL-33 on chip, Fab supernatant as analyte. On the procedure:
(§1) The library after the enrichment was used to construct a library of Escherichia coli secreting and expressing Fab. The culture supernatants of several hundreds of clones of Escherichia coli were subjected to measurement of dissociation rate constant (koff) by surface plasmon resonance (SPR) (ProteOn XPR36, available from Bio-Rad Laboratories, Inc.). The biotinylated human IL-33 protein (4 μg/mL) and cynomolgus monkey IL-33 protein (4 μg/mL) were loaded as ligands on a sensor chip (NLC sensor chip, available from Bio-Rad Laboratories, Inc.), to immobilize the human IL-33 protein at an amount equivalent to 1300 to 1600 RU, and the cynomolgus monkeyIL-33 protein at an amount equivalent to 1100 to 1500 RU. The culture supernatant of Escherichia coli was then loaded thereon as analyte to obtain a sensorgram with association phase of one minute and dissociation phase of 10 to 30 minutes. The sensorgram was subjected to interspot correction and blank correction using an SPR data analysis program (ProteOn Manager v3.1.0, available from Bio-Rad Laboratories, Inc.), and then values of koff were determined by off-rate analysis of Langmuir model.
For orientation: Surface plasmon resonance follows binding to a sensor surface in real time, without labels.

Test [2] concerns the target T2, 6His-AviTag-linked cynomolgus monkey IL-33 (residues 112 to 269) (cynomolgus monkey, UniProt O95760 112-269 (human entry), biotin on the AviTag portion (BirA) in the SPR of Example 7; used without biotinylation in Example 10).
T2 construct: GenBank EHH57404 printed; also called cynomolgus monkey IL-33 protein; mature cynomolgus monkey IL-33
T2 chain: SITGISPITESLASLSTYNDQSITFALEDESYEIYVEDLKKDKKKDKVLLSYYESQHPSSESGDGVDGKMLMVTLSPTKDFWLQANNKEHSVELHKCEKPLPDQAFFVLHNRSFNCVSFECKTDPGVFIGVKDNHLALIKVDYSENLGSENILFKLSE
Put plainly: SPR, IL-33 on chip, Fab supernatant as analyte. On the procedure: as §1

B1: A27-1A06 (Fab) (Fab, V domains shown)
VH: EVQLLESGGGLVQPGGSLRLSCAASGFTFSNYYMHWVRQAPGKGLEWVSSISARSSYRYYADSVKGRFTISRDNSKNTLYLQMNSLRAEDTAVYYCARLATRHLAFDIWGQGTLVTVSS
VL: QSVLTQPPSASGTPGQRVTISCSGSSSNIGNNAVNWYQQLPGTAPKLLIYASNMRRPGVPDRFSGSKSGTSASLAISGLRSEDEADYYCAAWDDSQKVFVFGGGTKLTVL
notes: Fab secreted by E. coli, tested as culture supernatant; also called V21
In general, koff refers to the rate constant with which the complex falls apart. With B1, in test [1], the “Human IL-33 Binding Amount (RU)” value came to 306 RU and the koff stood at 1e-05 s⁻¹. In test [2], the “Cynomolgus Monkey IL-33 Binding Amount (RU)” value was determined as 320 RU and the koff was 1e-05 s⁻¹.

B2: A28-1G07 (Fab) (Fab, V domains shown)
VH: EVQLLESGGGLVQPGGSLRLSCAASGFTFSNYYMHWVRQAPGKGLEWVSSISARSSYRYYADSVKGRFTISRDNSKNTLYLQMNSLRAEDTAVYYCARLATRHSAFDIWGQGTLVTVSS
VL: QSVLTQPPSASGTPGQRVTISCSGSSSNIGHNAVSWYQQLPGTAPKLLIYASNMRRLGVPDRFSGSKSGTSASLAISGLRSEDEADYYCGAWDDSQKVVVFGGGTKLTVL
notes: Fab secreted by E. coli, tested as culture supernatant; also called V24
As to B2, in test [1], the “Human IL-33 Binding Amount (RU)” value was 165 RU and the koff is 1e-05 s⁻¹. Moreover, in test [2], the “Cynomolgus Monkey IL-33 Binding Amount (RU)” value turned out to be 173 RU and the koff turned out to be 1.05e-05 s⁻¹.

B3: A27-1C06 (Fab) (Fab, V domains shown)
VH: EVQLLESGGGLVQPGGSLRLSCAASGFTFSNYYMHWVRQAPGKGLEWVSSISARSSYIYYADSVKGRFTISRDNSKNTLYLQMNSLRAEDTAVYYCARLATRHSAFDIWGQGTLVTVSS
VL: QSVLTQPPSASGTPGQRVTISCSGSSSNIGNNAVNWYQQLPGTAPKLLIYASNMRRLGVPDRFSGSKSGTSASLAISGLRSEDEADYYCGAWDDSQKAFVFGGGTKLTVL
notes: Fab secreted by E. coli, tested as culture supernatant; also called V22
Regarding B3, in test [1], the “Human IL-33 Binding Amount (RU)” value was determined as 294 RU and the koff is 1e-05 s⁻¹. Further, in test [2], the “Cynomolgus Monkey IL-33 Binding Amount (RU)” value is 304 RU and the koff is 1.14e-05 s⁻¹.

B4: A28-2F01 (Fab) (Fab, V domains shown)
VH: EVQLLESGGGLVQPGGSLRLSCAASGFTFSNYYMHWVRQAPGKGLEWVSSISSRSSHQYYAGSVKGRFTISRDNSKNTLYLQMNSLRAEDTAVYYCARLGLRHDAFDIWGQGTLVTVSS
VL: QSVLTQPPSASGTPGQRVTISCSGSSSNIGHNAVWWYQQLPGTAPKLLIYASNMRRMGVPDRFSGSKSGTSASLAISGLRSEDEADYYCAAWDDSQKAVVFGGGTKLTVL
notes: Fab secreted by E. coli, tested as culture supernatant; also called V26
As to B4, in test [1], the “Human IL-33 Binding Amount (RU)” value is 289 RU and the koff stood at 1e-05 s⁻¹. In addition, in test [2], the “Cynomolgus Monkey IL-33 Binding Amount (RU)” value amounted to 258 RU and the koff came to 1e-05 s⁻¹.

B5: A28-1C08 (Fab) (Fab, V domains shown)
VH: EVQLLESGGGLVQPGGSLRLSCAASGFTFSRYYMHWVRQAPGKGLEWVSSISARSSYIYYADSVKGRFTISRDNSKNTLYLQMNSLRAEDTAVYYCARLATRRDAFDIWGQGTLVTVSS
VL: QSVLTQPPSASGTPGQRVTISCSGSSSNIGRNAVSWYQQLPGTAPKLLIYASNMRRLGVPDRFSGSKSGTSASLAISGLRSEDEADYYCWAWDDSQKAVVFGGGTKLTVL
notes: Fab secreted by E. coli, tested as culture supernatant; also called V23
With B5, in test [1], the “Human IL-33 Binding Amount (RU)” value is 156 RU and the koff is 1e-05 s⁻¹. In addition, in test [2], the “Cynomolgus Monkey IL-33 Binding Amount (RU)” value is 144 RU and the koff was found to be 1e-05 s⁻¹.

B6: A28-2C06 (Fab) (Fab, V domains shown)
VH: EVQLLESGGGLVQPGGSLRLSCAASGFTFSNYYMHWVRQAPGKGLEWVSSISARSSYIYYAGSVKGRFTISRDNSKNTLYLQMNSLRAEDTAVYYCARLGTRRVAFDIWGQGTLVTVSS
VL: QSVLTQPPSASGTPGQRVTISCSGSSSNIGRNAVNWYQQLPGTAPKLLIYASNMRGMGVPDRFSGSKSGTSASLAISGLRSEDEADYYCSAWDDSQKVVVFGGGTKLTVL
notes: Fab secreted by E. coli, tested as culture supernatant; also called V25
In the case of B6, in test [1], the “Human IL-33 Binding Amount (RU)” value is 123 RU and the koff is 1e-05 s⁻¹. Besides, in test [2], the “Cynomolgus Monkey IL-33 Binding Amount (RU)” value stood at 134 RU and the koff is 1e-05 s⁻¹.
